Reference: paper PMC3228899 (Nature, 2011)

Columns and labels:
[1] = target: 3HA-Cln2-Cdk1 complex (budding yeast | budding yeast …, UniProt P20438 1-545; P00546 1-298)
[2] = target: Clb5-TAP-Cdk1 complex (budding yeast | budding yeast …, UniProt P30283 1-435; P00546 1-298); assay: pull-down
Clb5-TAP-Cdk1 complex, sequence (P30283 whole entry, chain 1 of 2): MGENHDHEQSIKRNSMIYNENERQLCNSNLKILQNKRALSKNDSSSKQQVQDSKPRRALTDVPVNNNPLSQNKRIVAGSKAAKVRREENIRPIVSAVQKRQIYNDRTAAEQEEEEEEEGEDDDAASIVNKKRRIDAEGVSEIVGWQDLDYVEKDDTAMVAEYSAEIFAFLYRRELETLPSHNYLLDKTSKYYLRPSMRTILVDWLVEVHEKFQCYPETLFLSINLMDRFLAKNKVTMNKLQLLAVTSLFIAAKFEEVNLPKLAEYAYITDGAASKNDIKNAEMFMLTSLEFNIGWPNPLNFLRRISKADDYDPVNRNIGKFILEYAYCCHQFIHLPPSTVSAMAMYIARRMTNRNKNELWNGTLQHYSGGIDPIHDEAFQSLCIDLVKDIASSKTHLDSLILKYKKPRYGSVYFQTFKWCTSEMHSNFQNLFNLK
Clb5-TAP-Cdk1 complex, sequence (P00546 whole entry, chain 2 of 2): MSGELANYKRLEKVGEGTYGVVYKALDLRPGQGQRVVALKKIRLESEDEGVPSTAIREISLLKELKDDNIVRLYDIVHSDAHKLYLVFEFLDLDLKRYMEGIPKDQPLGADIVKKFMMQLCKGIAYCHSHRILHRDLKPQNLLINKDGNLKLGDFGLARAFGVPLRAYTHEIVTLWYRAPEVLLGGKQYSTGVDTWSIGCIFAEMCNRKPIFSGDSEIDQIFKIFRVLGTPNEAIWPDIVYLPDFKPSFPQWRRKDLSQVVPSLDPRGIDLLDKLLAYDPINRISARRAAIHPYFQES

3HA-Cln2-Cdk1 complex, sequence (P20438 whole entry, chain 1 of 2): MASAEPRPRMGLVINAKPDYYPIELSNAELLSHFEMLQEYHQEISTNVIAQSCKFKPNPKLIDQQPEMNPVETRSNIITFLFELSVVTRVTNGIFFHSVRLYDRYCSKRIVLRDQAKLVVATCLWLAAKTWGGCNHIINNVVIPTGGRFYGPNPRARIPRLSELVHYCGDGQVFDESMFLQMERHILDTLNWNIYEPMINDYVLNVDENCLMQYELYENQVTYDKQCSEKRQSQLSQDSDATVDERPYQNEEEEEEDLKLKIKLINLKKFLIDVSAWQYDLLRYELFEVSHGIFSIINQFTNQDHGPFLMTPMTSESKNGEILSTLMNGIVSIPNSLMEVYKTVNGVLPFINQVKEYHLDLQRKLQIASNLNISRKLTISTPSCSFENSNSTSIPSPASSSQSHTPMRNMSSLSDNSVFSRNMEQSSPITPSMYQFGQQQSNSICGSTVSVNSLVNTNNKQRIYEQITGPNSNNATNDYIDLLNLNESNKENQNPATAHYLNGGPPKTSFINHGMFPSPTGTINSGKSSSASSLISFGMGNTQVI
3HA-Cln2-Cdk1 complex, sequence (P00546 whole entry, chain 2 of 2): as the sequence (P00546 whole entry, chain 2 of 2) above

| Binder | stoichiometry N [1] | binding result [2] |
| --- | --- | --- |
| Cks1 (endogenous, in yeast) (natural protein, UniProt P20486 1-150, looked up) MYHHYHAFQGRKLTDQERARVLEFQDSIHYSPRYSDDNYEYRHVMLPKAMLKVIPSDYFNSEVGTLRILTEDEWRGLGITQSLGWEHYECHAPEPHILLFKRPLNYEAELRAATAAAQQQQQQQQQQQQQQQQHQTQSISNDMQVPPQIS | ~1 Cks1:Cdk1 |  |
| full-length Sic1 (natural protein, budding yeast, UniProt P38634 1-284, looked up) MTPSTPPRSRGTRYLAQPSGNTSSSALMQGQKTPQKPSQNLVPVTPSTTKSFKNAPLLAPPNSNMGMTSPFNGLTSPQRSPFPKSSVKRTLFQFESHDNGTVREEQEPLGRVNRILFPTQQNVDIDAAEEEEEGEVLLPPSRPTSARQLHLSLERDEFDQTHRKKIIKDVPGTPSDKVITFELAKNWNNNSPKNDARSQESEDEEDIIINPVRVGKNPFASDELVTQEIRNERKRAMLRENPDIEDVITYVNKKGEVVEKRRLTDEEKRRFKPKALFQSRDQEH |  | binds |
